These results are taken from paper doi:10.1101/2024.05.05.592566.

The target in data set [1] is surface lysine methylated full-length AbiV (product of abiV1) from L. cremoris MG1363 (L. cremoris MG1363). The data set can be described thus: crystal structure.
Data set [2] deals with N-terminal truncated AbiV lacking its first 23 amino acids (AbiV_Δ23) (L. cremoris MG1363). The data set can be described thus: crystal structure.
For data set [3], the target named is T1, AbiV (AbiV1, HEPN RNase toxin) (Lactococcus cremoris MG1363, UniProt A2RJ64 1-201).
T1 sequence: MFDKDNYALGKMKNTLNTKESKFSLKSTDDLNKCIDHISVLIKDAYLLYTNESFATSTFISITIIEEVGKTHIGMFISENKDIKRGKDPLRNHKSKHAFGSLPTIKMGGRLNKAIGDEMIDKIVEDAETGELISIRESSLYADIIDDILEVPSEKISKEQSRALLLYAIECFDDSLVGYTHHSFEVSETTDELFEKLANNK
The data set can be described thus: EMSA. (In general: In EMSA bound probe runs differently from free probe, usually more slowly.)

Turning to “surface lysine methylated full-length AbiV (product of abiV1) from L. cremoris MG1363 (enzyme)”, the stoichiometry N (commonly the number of molecules, sites or subunits per partner or assembly) in data set [1] stood at 2.

Molecule “N-terminal truncated AbiV lacking its first 23 amino acids (AbiV_Δ23) (domain or fragment)” registered a stoichiometry N in data set [2] of 2. In the case of AAGUAGCUGCAACUACUA (ssRNA) [abiV2 motif85-102 (18-mer short RNA)], the binding result in data set [3] is on record as “binds”. The same measure, in the same setting: the same measure for AAUUGAUACUGUCAAUA (ssRNA) [abiV2 motif50-66 (17-mer short RNA)]: “no binding”.
